The target of experiment [1] is RSV clinical isolate A2001/2-20 fusion (F) protein (respiratory syncytial virus strain A2001/2-20). Description: co-IP; 293T cells co-transfected with EGFR and an RSV F construct; RIPA lysates 24 h after transfection; F precipitated with motavizumab on protein-A magnetic beads overnight at 4°C, washed in RIPA; blots for EGFR and RSV F, ratio of EGFR to F1.
Experiment [2] deals with Epidermal growth factor receptor (UniProt P00533).

As to “Epidermal growth factor receptor (from UniProt P00533 25-1210)”, in experiment [1], the fold ratio of co-precipitated EGFR to F, against A2 F worked out at 2.8 fold.
Consider “RSV clinical isolate A2001/2-20 fusion (F) protein (natural protein)”, for which the ratio of p-EGFR to EGFR by Western blot in serum-starved HEp-2 cells 24 h after transfection with 2–20 F, against A2 F in experiment [2] amounted to 4.45 fold.
